Assay results taken from the nanobody polyreactivity screen of Harvey et al. (2022).

Assay: yeast display, Sf9 membrane polyspecificity reagent, FACS + sequencing; frameworks hold sequencing errors
Procedure, shortened: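 A nanobody's polyreactivity label depends on the gate it was sorted from. Yeast display cells were stained with 10% biotinylated, detergent-solubilized Sf9 membrane reagent for 1 hour at 4 °C, enriched on streptavidin microbeads and sorted by FACS. The low and high (top ~1%) gates were set on anti-HA fluorescence for expression and streptavidin fluorescence for reagent binding.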

Sequence | polyreactivity (PSR sort gate)
QVQLVESGGRLVQAGGSLRLSCAASGRIFRYYTMGWYRQAPGKERELVAAITRRGGITNYADSVKGRFTISRDNAKNTVYLQTNSLKPEDTAVYYCAAKYVSQGYDYWGQGTQVTVSS | high polyreactivity
QVQLVESGGRLVQAGGSLRLSCAASGRIFTGSNVMGWYRQAPGKEREFVAVINSGGGSTYYADSVKGRFTISRDNAKNTVYLQMNSLKPEDTAVYYCAADVGGWGYYDWVQGTQVTVSS | low polyreactivity
QVQLVESGGRLVQAGGSLRLSCAASGRIFVYNAMRWYRQAPGKERELVASITSSGGSTYYADSVKGRFTISRDNAKNTVYLQMNSLKPEDTAVYYCAADVQPDTRSTPEMDYWGQGTQVTVSS | low polyreactivity
QVQLVESGGRLVQAGGSLRLSCAASGRIFYPYAMGWYRQAPGKERELVASISSSGDRTYYADSVKGRFTISRDNAKNTVYLQMNSLKPEDTAVYYCAARWRYTYYYWGQGTQVTVSS | high polyreactivity
QVQLVESGGRLVQAGGSLRLSCAASGRILRQYTMGWYRQAPGKERELVAGITGSDSSTYYADSVKGRFTISRDNAKNTVYFQMNSLKPEDRAVYYCGTYRWGTLASIYYYWGQGPQVTVSS | low polyreactivity
QVQLVESGGRLVQAGGSLRLSCAASGRTFNRNAMVWYRQAPGKERELVAAISRGGGGTYYADSVMGRFTISRDNAKNTVYLQMNSLKPEDTAVYYCNAAPYYVMYLLWSSNTYDYWGQGTQVTVSS | high polyreactivity
QVQLVESGGRLVQAGGSLRLSCAASGRTFRWYAMGWYRQAPGKEREVVAAITFSGGSTYYADSVKGRFTISRDIAKNTVYLQMNSLKPEDTAVYYCNAVYYRRKEYDYWGQGTQVTVSS | high polyreactivity
QVQLVESGGRLVQAGGSLRLSCAASGRTFSTYDMGWSRQAPGKERELVAAITSTGDTPYYADSVKGRFTISRDTAKNTVYLQLNSLKPEDTAVYYCAAYASWHQWIYAFYGLDYWGQGTQVTVSS | low polyreactivity
QVQLVESGGRLVQAGGSLRLSCAASGRTFYGYAMGWYRQAPGKEREFVAAISVGGGSTYYADSVKGRFTISRDKAKNTVYLQMNSLKPEDTAVYYCAAYTRYWSYGYWGQGTQVTVSS | high polyreactivity
QVQLVESGGRLVQAGGSLRLSCAASGRTIYSNTMGWYRQAPGKEREFVAAIPSIVGSTYYADSVKGRFTISRDNAKNTVYLQMNSLKPEDTAVYYCAVTDYYSYLLRYDSWGQGTQVTVSS | low polyreactivity
QVQLVESGGRLVQAGGSLRLSCAASGSIFIPNAMGWYRQAPGKERELVAAITVSGGITYYADSVKGRFTISRDNAKNSVYLQMNSLKPEDTAVYYCAADFTIYYILEYDYWGQGTQVTVSS | low polyreactivity
QVQLVESGGRLVQAGGSLRLSCAASGSIFRSYAMGWYRQAPGKERELVATISSSTGSTYYADSVKGRFTISRDNAKNTVYLQRNSLKPEDTAVYYCNAQRRWSIYGYFYYWGQGTQVTVSS | high polyreactivity
QVQLVESGGRLVQAGGSLRLSCAASGSIFSGYTMGWYRQAPGKERELVAAISSDGSTTYADSVKGRFTISRDNAKNTVYLQLNSLKPEDSAVYYSAAYPYWDGSYGGYDYWGQGTQVTVSS | low polyreactivity
QVQLVESGGRLVQAGGSLRLSCAASGSTFGPYTMGWYRQAPGKERELVATISSGGSTYYADSVKGRFTISRDNAKNTVYLQMNSLKPEDTAVYYCAARYWSIYDYWGQGTQVTVSS | low polyreactivity
QVQLVESGGRLVQAGGSLRLSCAASGSTFGWYTMGWYRQAPGKERELVAAITSRGTRTSYADSVKARFTISRDNAKNTVYLQMNSLKPEDTAVYYCAARVFRGLGEYYWGQGTQVTVSS | high polyreactivity
QVQLVESGGRLVQAGGSLRLSCAASGSTFPLYARGWCRQAPGKERELVAAITGGGGRTYYADSVKGRFTISRDNAKNTVYLQMNSLKPEDTGVYYCNAVVYLTNYWYDYWGQGTQVTVSS | low polyreactivity
QVQLVESGGRLVQAGGSLRLSCAASGSTFVYYAMGWYRQAPGKERELVASINSGGSTYYADSVKGRFTISRDNAKNTVYLQMNSLKQEDTAVYDCAATSIPPSVHLQDPTYDYWGQGTQVTVSS | low polyreactivity
QVQLVESGGRLVQAGGSLRLSCAASGSTIKSYAMGWYRQAPGKERELVAGITSGDSTNYADSVKGRFTISRDNAKNTVYFQMNSLKPDDTAVYYCNAVTQARYYYWGQGYQVTVSS | low polyreactivity
QVQLVESGGRLVQAGGSLRLSCADSGRTFYLYAMGWYRQAPGKEREFVADITFSGASTDYAASVKGRFTISRDNAKNTVYLQMNSLKPEDTAVYYCNADIAHVCWWSYPTDDYWGQGTQVTVSS | high polyreactivity
QVQLVESGGRLVQAGGSLRLSCAPSGIIFIWNTMGWYRQAPGKESEFVAAISRSGSGTSYADSVKGRFTISRDNAKNTVYLQMNSLKPEDTAVYYCAARLECPYDMYYWGQGTQVTVSS | low polyreactivity
QVQLVESGGRLVQAGGSLRLSCAPSGRIFWAYAMGWYRPAPGKERELVAAITSGGSTYYADSVKGRFTISRDNAKNTVYLQMNSLKPEDTAVYYCAVGSKWVDDSPEDVYWGQGTQVTVSS | low polyreactivity
QVQLVESGGRLVQAGGSLRLSGAASGSTIQTNVMGWYRQAPGKERELLAAISSGGSTNYADSVKGRFTISRDNAKNNVYLQMNSLKPEDTADYYCAKRWPYFRRGKDGYCGQGTQVTVSS | low polyreactivity

Sequence | polyreactivity (PSR sort gate)
QVQLVESGGRLVQAGGSLRLSSAASGSTFSFYVMRWYRQAPGKERELVAAISWSSVGTYSADSVKGRFTISRDNAKNTVYLQMNSLKPEDTAVYYCAADSYRRVAKHGYWGQGTQVTVSS | high polyreactivity
QVQLVESGGRLVQAGGSLSLSCASSGRIFWTYAMGLTRQAPGEERELVAAINSSDGTYYADSVKGRFTISRDNAKNTVYLQKNSLKPEDTAVYYCNADRDALVGYDYDYWGQGTQVTVSS | low polyreactivity
QVQLVESGGRLVQAGGTLPLSSAASGLIFGYYAMGFYIQAPGKERELDADISSGGSTNYADSVKGRFTISRENAKNTVYLQMNRLTPEDTAVFYCAARYSRWFGYCGQGTQVTVSS | high polyreactivity
QVQLVESGGRLVQAGGTLRLSCAASGSICGFNAMGWYRQAPGKERELVAAINNGGSKNYADSVKGRFTISRDNAKITVYLQMKILKQEDTEVYYCAARLNYIRRGYWGQGTQVTVSS | high polyreactivity
QVQLVESGGRLVQAGVILRLSCAASGSTFAPYAMGWYRQSPGKESELVATISASGGTTYYADSVKGRFTISRDNAKNTVYLQMNSLKPEDTAVYYCNADSNWYDQWNYYGLNDYWGQGTQVTVSS | low polyreactivity
QVQLVESGGRLVQAGVSLRISSAASGYISRVYAMGWYRHAPGKERELVAAITRSTTYYADSVKGRFTISRDNAKNTVYLQMNSLKPEDTAVDYCNADWASPGQVRMYYWGQGTQVTVSS | high polyreactivity
QVQLVESGGRLVQARGSLRLICAASGLIIAYYTMGWYRQAPGKEREFVAVIDWIGVSTYYADSVKGRFTISRDNAKNTVYLQMNSLKPEDTAVYYCNADNAFPSPKSSLDYWGQGTQVTVSS | low polyreactivity
QVQLVESGGRLVQARGSLRLSCAASGRIFYDYAMGCYRQAPGKESELVAAISGSGGSTYYADSVKGRFTISRDNAKNTVYLQMNSLKPEDTAVYYCNRYTTRYYPGGDYWGQGTQVTVSS | high polyreactivity
QVQLVESGGRLVQPGGSLRLSCAASGRTFVLNAIGWYRQAPGKEREFVAAISWGGVRTDYADSVKGRFTISRDNAKNTVYLQMNSLKPEDTAVYYCATSGSRYRRYDYWGQGTQVTVSS | high polyreactivity
QVQLVESGGRLVQSGGSLRLICAASGQIFQWYAMGWYRQAPGKETELVAAISSGDSTYYADSVTGRFTISRDNAKNTVYLDMNSLKPEDTAVDYCNARAIGWRIYDYWGQGTEVTVSS | high polyreactivity
QVQLVESGGRLVQSGGSLRLSCAASGRTIVENAMGLYRQAPGKEREFVAAISYKGGSTYYADSVKGRFTISRDNAKNTVYFQMNSLNPEDTAVYYCAADPNYGYDYWGQGTQVTVST | low polyreactivity
QVQLVESGGSLVQAGGSLRLSCAASGSIFFYYAMGWYRQAPGKERELVAAISWSGGSTYYADSVKGRFTISRDNAKNTVYLQMNSLKPEDTAVYYCAADRPYAGRYWKGYHSALYDYWGQGTQVTVSS | low polyreactivity
QVQLVESGGSLVQAGGSLRLSCAASGSTFDYYAMGWYRQAPGKARELHAAIDWSGDSTYYADSVKGRFTISRDNAKNTVYLQMNSLKREDSAVYYCPADLDSRGTYGRYEYWGQGTQVTVSS | low polyreactivity
QVQLVESGGSLVQAGGSLRVSCAASRSIFEHYAMGWYRQAHGKERELVATISSASRTHYADSVKGRFTISRDNAKNTVYLQRNSLKREDTAVYYCAARLYYVWYAPYYYWGQGTQVSVSS | high polyreactivity
QVQLVESGGSLVQEGGSLRLSCAASGRTYNVMGWDRQAPGKERELVAAITWGGGSTHYADSVKGRFTISRDNAKNTVYVQMNSLKPEDTAVYYCAADLLYKSTRVDYWGQGTQVTVSS | low polyreactivity
QVQLVESGGVFDQARGSLRLSCAASGSIFAIYAMGWYRQAPGKERELVAAISRSGGRTYYADSVKGRFTISRDNAKNTVYLQMNSLKPEDTAVYYCAAQGVSSGFRYRGGYWGQGTQVTVSS | high polyreactivity
QVQLVESGGVLFQAGGSLRLSCAAAGFTFKYNAMGWYRQAPGKERELVASITSGATNYADSVKGRFTIARDNAKNTVSLQLTTLKPEETAVYDCAVVDVHYTRAKVGYAYGAYDYWGQCTQVTVSS | low polyreactivity
QVQLVESGGVLLQAGGSLRLSCAASGSIFYPYAMGWYRQAPGKERELFAAITYIDADTYYADSVKGRFTISRDNAKNTVYLQMNSLKPEDTAVYYCAAEIPVYQGTGEDDYWGQGTQVTVSS | low polyreactivity
QVQLVESGGVLVKAGGSLRLSCAASGRIFGYYAMGWYIQAPGKERELFAAITYSSGRTYYADSVKGRFTISRDNAKNTFYLQMNSLKPEDTAVYYCAARYHYYLSPATYYYWGQGTQVTVSS | high polyreactivity
QVQLVESGGVLVQAGCSIRLSCSASGLTFIQYAMGWYRQAPGKERELVAAINSGASTRYADSVKGRFTISRDNAKNTVYLQMNSLKPEDTAVYYCNARLRRYTNRYYKYYYWGQGTQVNVSS | high polyreactivity
QVQLVESGGVLVQAGGRLRISCAASGSTFVRNAMGWYRQAPGKEMELVAAISFSGGSTYYADSVKGRFTISRDTAKNTVYLQMNSLKPEDTAVYYCAKKTRYRSRGMNYWGQATQVTVSS | high polyreactivity
